Results taken from patent US6033894A, “Kaposi's Syndrome Herpesvirus protease and assembly protein compositions and methods” (The Regents of the University of California, priority 1998, dated 2000).
“Also recorded” adds a separate entry of the source. Peptide text beside a SMILES is read from it. * marks the point of attachment. Boc = CC(C)(C)OC(=O)*; CH2Cl = ClC*

Columns and labels:
[1] = test system: HCMV M-site peptide substrate DABCYL-[…]-EDANS; assay: Continuous fluorometric assay of cleavage of fluorogenic peptide substrate; assay type: biochemical; conditions: for increase in fluorescence intensity (F/Fo) from peptide hydrolysis: 1.5 μM enzyme, 10 μM substrate, pH 5.5, 37° C., by five hours; for proteolytic activity relative to KSHV Pr: assayed according to the method of Example 5; for rate of hydrolysis of HCMV substrate relative to 1.5 μM wild-type KSHV Pr: 1 μM trypsin D102N or 1 nM trypsin vs 1.5 μM KSHV Pr, one-hour time course
Description: Such activities can be determined by comparing the activity of a KSHV PR, as defined herein, to that of the KSHV Pr having the sequence SEQ ID NO:7. For example, in experiments carried out in support of the present invention, recombinantly produced His6 -KSHV Pr and variant His6 -KSHV Pr(S114A) proteins were tested for ability to cleave a synthetic peptide substrate. The substrate, containing the HCMV M-site peptide sequence RGVVNASSRLA (SEQ ID NO:15) flanked by a fluorogenic donor-acceptor pair, allows for continuous monitoring of peptide hydrolysis due to fluorescence enhancement arising from donor-acceptor separation (Holskin, et al., 1995). This substrate contains an internal Arg residue, allowing for cleavage by trypsin, an extremely well-characterized serine protease.
Protease assays using the fluorogenic peptide substrate DABCYL-Arg-Gly-Val-Val-Asn-Ala-Ser-Ser-Arg-Leu-Ala-EDANS, where RGVVNASSRLA (SEQ ID NO:15) was obtained from BACHEM (King of Prussia, Pa.), were monitored optically by a Perkin-Elmer LS-5B luminescence spectrophotometer interfaced with a Macintosh SE-30 computer. DABCYL represents 4-(4'-Dimethylaminophenylazo)benzoic acid, and EDANS signifies (2'-aminoethylamino)-naphthalene-1-sulfonic acid. His6 -Pr and His6 -Pr(S114A) were diluted 10-fold from storage buffer into assay buffer (50 mM NaOAc (pH 5.5), 20% (v/v) glycerol, 0.1 mM EDTA, 0.1 mM DTT), equilibrated to 37° C. for 5 minutes in thermostatted quartz cuvettes, and manually mixed with a final substrate concentration of 10 μM. A pH 5.5 buffer was utilized due to slightly higher proteolytic activity than that observed in pH 7.5 Tris-based solutions. The final KSHV Pr concentrations were 1.5 μM. Time-evolved fluorescence enhancement was followed by exciting the samples at 355 nm and detecting emission at 495 nm. Trypsin and its D102N variant (Craik, et al., 1987) were diluted into the same assay buffer to final concentrations of 1 nM and 1 μM, respectively, and treated identically to the KSHV enzymes. The ratio of fluorescence at each time point (F) was then compared with the initial fluorescence output (FO) to generate plots of F/FO vs. time.

[2] = test system: KSHV-infected B-cell line, BCBL-1; assay: Northern blot of KSHV AP and Pr/AP transcripts in BCBL-1 cells; assay type: cell-based; set-up: production of 0.95 kb AP transcript / production of 0.95 kb and 2.3 kb transcripts: dose or concentration left out as unconfirmed
Source text: The KSHV-infected B-cell line, BCBL-1, was employed for transcription of the KSHV Pr/AP and AP genes during lytic infection. This cell line harbors the viral genome in latent form, and treatment of these cells with TPA induces lytic replication (Renne, et al., 1996). Equivalent amounts of poly(A)-enriched RNA from uninduced or induced BCBL-1 cells in the presence or absence of phosphoroformic acid (PFA), an inhibitor of herpesviral DNA replication, were separated on a formaldehyde/agarose gel, transferred to a membrane, and hybridized to a probe derived from the 1.5 kb fragment containing the Pr/AP ORF of KSHV, as detailed in Example 6.
BCBL-1 cells (Renne, et al., 1996) were treated with phosphoroformic acid (PFA) at a concentration of 500 mM for at least 3 days prior to induction. Untreated and PFA treated cells were then split into identical flasks, at 3×10^5 cells/ml, and left unstimulated or induced with 12-O-tetradecanoyl phorbol-13-acetate (TPA) at a concentration of 20 ng/ml. After 48 hours, total RNA was harvested using RNAzol B as recommended by the manufacturer (Tel-Test, Friendwood, Tex.). To enrich the polyadenylated RNA fraction, 300 μg RNA samples, uninduced and induced with TPA, and with and without PFA treatment, were affinity purified using the Oligotex mRNA purification system (Qiagen, Chatsworth, Calif.). RNA was separated on a 1% agarose, 17% formaldehyde gel, transferred to Hybond-N nylon membrane in 10× SSC for 5 hours, and UV-crosslinked. The 1.5 kb insert from pBS1.5 was gel purified and labelled using the rediPrime Random Prime kit (Amersham Corporation, Arlington Heights, Ill.). Hybridization was performed as according to standard methods (Renne, et al., 1996), and the blot was exposed to Kodak XAR5 film for 8 hours.

[3] = biological target: fluorogenic peptide substrate DABCYL-Arg-Gly-Val-Val-Asn-Ala-Ser-Ser-Arg-Leu-Ala-EDANS (HCMV)
[4] = biological target: T1, KSHV protease Pr(S204G), an autolytically stable variant (Human herpesvirus 8 strain GK18, UniProt Q2HRB6, S204G); assay: Fluorometric enzyme assay, inhibition of KSHV protease; assay type: biochemical, Kaposi's Sarcoma Herpesvirus (KSHV); conditions: 0.5 μM enzyme Pr(S204G), 300 μM inhibitor, 15 min pre-incubation, 20 μM fluorogenic substrate
T1 construct: S204G, untagged, recombinant in E. coli; source DNA from pulmonary KS tumor clone
T1 sequence (Q2HRB6 1-230 A226V): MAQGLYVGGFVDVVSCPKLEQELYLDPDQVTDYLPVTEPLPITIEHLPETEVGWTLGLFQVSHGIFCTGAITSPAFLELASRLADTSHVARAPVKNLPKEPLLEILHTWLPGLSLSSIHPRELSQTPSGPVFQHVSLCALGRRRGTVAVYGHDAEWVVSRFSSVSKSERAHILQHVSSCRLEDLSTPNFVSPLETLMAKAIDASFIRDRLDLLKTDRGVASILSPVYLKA

[5] = biological target: fluorogenic peptide substrate DABCYL-Arg-Gly-Val-Val-Asn-Ala-Ser-Ser-Arg-Leu-Ala-EDANS (HCMV); remark: listed apart in the source

Molecule: KSHV Pr: recombinant KSHV protease (SEQ ID NO:7) with amino-terminal His6 tag, expressed in E. coli
- increase in fluorescence intensity (F/Fo) from peptide hydrolysis [1]: nearly three-fold increase

Molecule: O=C(O)P(=O)(O)O [PFA, phosphoroformic acid]
- production of 0.95 kb and 2.3 kb transcripts ([2]; TPA-induced BCBL-1 cells): strongly inhibited
- production of 0.95 kb AP transcript ([2]; uninduced BCBL-1 cells): strongly inhibited

Molecule: CCCCCCCCCCCCCC(=O)O[C@@H]1[C@@H](C)[C@@]2(O)[C@@H](C=C(CO)C[C@]3(O)C(=O)C(C)=C[C@@H]23)[C@@H]2C(C)(C)[C@]12OC(C)=O [TPA, 12-O-tetradecanoyl phorbol-13-acetate]
- production of 0.95 kb AP transcript upon lytic induction ([2]; BCBL-1 cells, TPA 20 ng/ml, 48 hours): strongly upregulated

Molecule: trypsin D102N (from UniProt P00763) (enzyme)
- fluorescence enhancement (F/Fo) from hydrolysis of the fluorogenic peptide (fold faster than KSHV Pr) [3]: 2

Molecule: CC(C)C[C@H](NC(=O)[C@H](Cc1ccc(O)cc1)NC(=O)OC(C)(C)C)C(=O)N[C@@H](CCCCN)C(=O)N[C@@H](C)C(=O)CCl [Boc-YLKA-COCH2 Cl] (Boc-YLKA-CH2Cl)
- inhibition of protease activity [4]: Complete inhibition

Molecule: KSHV His6-Pr (enzyme)
- fluorescence enhancement (F/Fo) from hydrolysis of the fluorogenic peptide (fold increase in fluorescence intensity) [5]: 3

B1: Pr(S204G): KSHV protease variant engineered to stabilize the enzyme against autoproteolysis, expressed without His6 tag (protein)
chain: MAQGLYVGGFVDVVSCPKLEQELYLDPDQVTDYLPVTEPLPITIEHLPETEVGWTLGLFQVSHGIFCTGAITSPAFLELASRLADTSHVARAPVKNLPKEPLLEILHTWLPGLSLSSIHPRELSQTPSGPVFQHVSLCALGRRRGTVAVYGHDAEWVVSRFSSVSKSERAHILQHVSSCRLEDLSTPNFVSPLETLMAKAIDAGFIRDRLDLLKTDRGVASILSPVYLKA
- proteolytic activity relative to KSHV Pr [1]: essentially the same activity as Pr; also recorded: substantially the same activity as Pr

B2: S114A variant: KSHV protease variant in which the active-site Ser-114 was converted to Ala (protein)
chain (part 1 of 2): MRGS
chain (part 2 of 2): GSAQGLYVGGFVDVVSCPKLEQELYLDPDQVTDYLPVTEPLPITIEHLPETEVGWTLGLFQVSHGIFCTGAITSPAFLELASRLADTSHVARAPVKNLPKEPLLEILHTWLPGLALSSIHPRELSQTPSGPVFQHVSLCALGRRRGTVAVYGHDAEWVVSRFSSVSKSERAHILQHVSSCRLEDLSTPNFVSPLETLMAKAIDASFIRDRLDLLKTDRGVASILSPVYLKA
- increase in fluorescence intensity (F/Fo) from peptide hydrolysis [1]: minimal enhancement
- proteolytic activity relative to KSHV Pr [1]: 1/10

B3: trypsin D102N: trypsin in which the active site Asp residue has been replaced with Asn (protein)
chain: IVGGYTCQENSVPYQVSLNSGYHFCGGSLINDQWVVSAAHCYKSRIQVRLGEHNINVLEGNEQFVNAAKIIKHPNFDRKTLNNDIMLIKLSSPVKLNARVATVALPSSCAPAGTQCLISGWGNTLSSGVNEPDLLQCLDAPLLPQADCEASYPGKITDNMVCVGFLEGGKDSCQGDSGGPVVCNGELQGIVSWGYGCALPDNPGVYTKVCNYVDWIQDTIAAN
- rate of hydrolysis of HCMV substrate relative to 1.5 μM wild-type KSHV Pr [1]: 2 fold
- catalytic efficiency relative to trypsin ([1]; under the conditions used herein): roughly 5000 fold

B4: trypsin: extremely well-characterized serine protease used for comparison (protein)
chain: IVGGYTCQENSVPYQVSLNSGYHFCGGSLINDQWVVSAAHCYKSRIQVRLGEHNINVLEGNEQFVNAAKIIKHPNFDRKTLNNDIMLIKLSSPVKLNARVATVALPSSCAPAGTQCLISGWGNTLSSGVNEPDLLQCLDAPLLPQADCEASYPGKITDNMVCVGFLEGGKDSCQGDSGGPVVCNGELQGIVSWGYGCALPDNPGVYTKVCNYVDWIQDTIAAN
- rate of hydrolysis of HCMV substrate relative to 1.5 μM wild-type KSHV Pr [1]: substantially more active than the KSHV enzyme
